Among the data in patent US20150118238A1 are Relative Positive Pixel Intensity Score values, retold here.

The test has as its target RON on RON-transfected NIH 3T3 cells (UniProt Q04912). In words: IHC on FFPE RON-transfected NIH3T3 cells, Aperio Positive Pixel Count.

EP1132Y antibody (Anti-RON): the Relative Positive Pixel Intensity Score came out at 221.
